# In patent publication US20110263454A1, “Methods of Identifying Functional Characteristics of Promoters, Transcription Modifying Proteins and Transcription Modulating Agents” (Salk Institute for Biological Studies, priority 2008, published 2011):
# Tests used:
# [1] = system: hCAR promoter; assay: NHR-promoter luciferase screen, hCAR promoter; format: cell-based, human; settings: for luciferase activity normalized to lacZ activity and to a control, hCAR: hCAR promoter-luciferase, CV-1 cells, NHR +/- ligand, control = 1.00; for Luc. act., normalized to lacZ / Normalized Luc. act., normalized to control: hCAR promoter, HR/ligand component
# Method in brief: (§1)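 CV-1 cells were co-transfected with 50 ng NHR (homodimer or NHR/RXR heterodimer), 100 ng promoter-luciferase construct and 50 ng LacZ. Luciferase was normalized to LacZ and to a no-NHR/no-ligand control.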
# [2] = system: hMyoD promoter; assay: NHR-promoter luciferase screen, hMyoD promoter; format: cell-based, human; settings: for Luc. act., normalized to lacZ / Normalized Luc. act., normalized to control: MyoD promoter reporter, co-transfected HR, without or with its ligand; for Normalized Luc. act., normalized to control: relative to control; for luciferase activity normalized to lacZ activity and to a control, hMyoD: hMyoD promoter-luciferase, CV-1 cells, NHR +/- ligand, control = 1.00
# Method in brief: as §1
# [3] = system: mNPY promoter; assay: NHR-promoter luciferase screen, mNPY promoter; format: cell-based, mouse; settings: for Results of assays of transcription factor (+/- ligand) with mNPY: Table 6d, luciferase activity relative to control (control = 1.00); for Luc. act., normalized to lacZ / Normalized Luc. act., normalized to control: mNPY promoter, HR component with or without ligand; for Normalized Luc. act., normalized to control: relative to control
# Method in brief: as §1
# [4] = system: mUCP3 promoter; assay: NHR-promoter luciferase screen, mUCP3 promoter; format: cell-based, mouse; settings: for Normalized Luc. act., normalized to control / Luc. act., normalized to lacZ: mUCP3 promoter reporter; for Normalized Luc. act., normalized to control: HR without or with its ligand, relative to control; for Luc. act., normalized to lacZ: hormone receptor (HR) without or with its ligand; for mUCP3 promoter reporter activity: transcription factor +/- ligand, control = 1.00
# Method in brief: as §1
# [5] = system: mDio2 promoter; assay: NHR-promoter luciferase screen, mDio2 promoter; format: cell-based, mouse; settings: for Luc. act., normalized to lacZ / Normalized Luc. act., normalized to control: Dio2, HR component without or with its ligand; for mDio2 promoter reporter activity: transcription factor +/- ligand, control = 1.00
# Method in brief: as §1
# [6] = system: mABCA1 promoter; assay: NHR-promoter luciferase screen, mABCA1 promoter; format: cell-based, mouse; settings: for Luc. act., normalized to lacZ / Normalized Luc. act., normalized to control: ABCA1 promoter, hormone receptor with or without its ligand; for Normalized Luc. act., normalized to control: relative to control; for mABCA1 promoter reporter activity: transcription factor +/- ligand, control = 1.00
# Method in brief: as §1
Molecule,"luciferase activity normalized to lacZ activity and to a control, hCAR [1]","Luc. act., normalized to lacZ [1]","Normalized Luc. act., normalized to control [1]","Luc. act., normalized to lacZ [2]","Normalized Luc. act., normalized to control [2]","luciferase activity normalized to lacZ activity and to a control, hMyoD [2]",Results of assays of transcription factor (+/- ligand) with mNPY [3],"Luc. act., normalized to lacZ [3]","Normalized Luc. act., normalized to control [3]","Normalized Luc. act., normalized to control [4]","Luc. act., normalized to lacZ [4]",mUCP3 promoter reporter activity [4],"Luc. act., normalized to lacZ [5]","Normalized Luc. act., normalized to control [5]",mDio2 promoter reporter activity [5],"Luc. act., normalized to lacZ [6]","Normalized Luc. act., normalized to control [6]",mABCA1 promoter reporter activity [6]
"NR4a3: NR4a3 (NR4A3; NOR1), nuclear hormone receptor cDNA driver (protein, UniProt Q92570 1-626, looked up) Nuclear receptor subfamily 4 …: MPCVQAQYSPSPPGSSYAAQTYSSEYTTEIMNPDYTKLTMDLGSTEITATATTSLPSISTFVEGYSSNYELKPSCVYQMQRPLIKVEEGRAPSYHHHHHHHHHHHHHHQQQHQQPSIPPASSPEDEVLPSTSMYFKQSPPSTPTTPAFPPQAGALWDEALPSAPGCIAPGPLLDPPMKAVPTVAGARFPLFHFKPSPPHPPAPSPAGGHHLGYDPTAAAALSLPLGAAAAAGSQAAALESHPYGLPLAKRAAPLAFPPLGLTPSPTASSLLGESPSLPSPPSRSSSSGEGTCAVCGDNAACQHYGVRTCEGCKGFFKRTVQKNAKYVCLANKNCPVDKRRRNRCQYCRFQKCLSVGMVKEVVRTDSLKGRRGRLPSKPKSPLQQEPSQPSPPSPPICMMNALVRALTDSTPRDLDYSRYCPTDQAAAGTDAEHVQQFYNLLTASIDVSRSWAEKIPGFTDLPKEDQTLLIESAFLELFVLRLSIRSNTAEDKFVFCNGLVLHRLQCLRGFGEWLDSIKDFSLNLQSLNLDIQALACLSALSMITERHGLKEPKRVEELCNKITSSLKDHQSKGQALEPTESKVLGALVELRKICTLGLQRIFYLKLEDLVSPPSIIDKLFLDTLPF",0.54,16.9,0.5,56.1,0.9,0.89,0.72,60.4,0.7,1.2,0.81,1.19,14.8,0.9,0.94,6.8,1.2,1.21
"PR: Progesterone Receptor (NR3C3), cDNA driver (protein, UniProt P06401 1-933, looked up) Progesterone receptor: MTELKAKGPRAPHVAGGPPSPEVGSPLLCRPAAGPFPGSQTSDTLPEVSAIPISLDGLLFPRPCQGQDPSDEKTQDQQSLSDVEGAYSRAEATRGAGGSSSSPPEKDSGLLDSVLDTLLAPSGPGQSQPSPPACEVTSSWCLFGPELPEDPPAAPATQRVLSPLMSRSGCKVGDSSGTAAAHKVLPRGLSPARQLLLPASESPHWSGAPVKPSPQAAAVEVEEEDGSESEESAGPLLKGKPRALGGAAAGGGAAAVPPGAAAGGVALVPKEDSRFSAPRVALVEQDAPMAPGRSPLATTVMDFIHVPILPLNHALLAARTRQLLEDESYDGGAGAASAFAPPRSSPCASSTPVAVGDFPDCAYPPDAEPKDDAYPLYSDFQPPALKIKEEEEGAEASARSPRSYLVAGANPAAFPDFPLGPPPPLPPRATPSRPGEAAVTAAPASASVSSASSSGSTLECILYKAEGAPPQQGPFAPPPCKAPGASGCLLPRDGLPSTSASAAAAGAAPALYPALGLNGLPQLGYQAAVLKEGLPQVYPPYLNYLRPDSEASQSPQYSFESLPQKICLICGDEASGCHYGVLTCGSCKVFFKRAMEGQHNYLCAGRNDCIVDKIRRKNCPACRLRKCCQAGMVLGGRKFKKFNKVRVVRALDAVALPQPVGVPNESQALSQRFTFSPGQDIQLIPPLINLLMSIEPDVIYAGHDNTKPDTSSSLLTSLNQLGERQLLSVVKWSKSLPGFRNLHIDDQITLIQYSWMSLMVFGLGWRSYKHVSGQMLYFAPDLILNEQRMKESSFYSLCLTMWQIPQEFVKLQVSQEEFLCMKVLLLLNTIPLEGLRSQTQFEEMRSSYIRELIKAIGLRQKGVVSSSQRFYQLTKLLDNLHDLVKQLHLYCLNTFIQSRALSVEFPEMMSEVIAAQLPKILAGMVKPLLFHKK",1.00,31.5,1.0,70.4,1.1,1.11,1.09,91.7,1.1,1.3,0.86,1.27,21.4,1.4,1.36,8.9,1.6,1.58
"NR4a2: NR4a2 (NR4A2; NURR1), nuclear hormone receptor cDNA driver (protein, UniProt P43354 1-598, looked up) Nuclear receptor subfamily 4 …: MPCVQAQYGSSPQGASPASQSYSYHSSGEYSSDFLTPEFVKFSMDLTNTEITATTSLPSFSTFMDNYSTGYDVKPPCLYQMPLSGQQSSIKVEDIQMHNYQQHSHLPPQSEEMMPHSGSVYYKPSSPPTPTTPGFQVQHSPMWDDPGSLHNFHQNYVATTHMIEQRKTPVSRLSLFSFKQSPPGTPVSSCQMRFDGPLHVPMNPEPAGSHHVVDGQTFAVPNPIRKPASMGFPGLQIGHASQLLDTQVPSPPSRGSPSNEGLCAVCGDNAACQHYGVRTCEGCKGFFKRTVQKNAKYVCLANKNCPVDKRRRNRCQYCRFQKCLAVGMVKEVVRTDSLKGRRGRLPSKPKSPQEPSPPSPPVSLISALVRAHVDSNPAMTSLDYSRFQANPDYQMSGDDTQHIQQFYDLLTGSMEIIRGWAEKIPGFADLPKADQDLLFESAFLELFVLRLAYRSNPVEGKLIFCNGVVLHRLQCVRGFGEWIDSIVEFSSNLQNMNIDISAFSCIAALAMVTERHGLKEPKRVEELQNKIVNCLKDHVTFNNGGLNRPNYLSKLLGKLPELRTLCTQGLQRIFYLKLEDLVPPPAIIDKLFLDTLPF",0.58,18.4,0.6,51.9,0.8,0.82,0.72,60.4,0.7,1.0,0.68,1.01,12.4,0.8,0.79,6.2,1.1,1.11
"hMR: Mineralocorticoid Receptor (NR3C2, MR), cDNA driver (protein, UniProt P08235 1-984, looked up) Mineralocorticoid receptor: METKGYHSLPEGLDMERRWGQVSQAVERSSLGPTERTDENNYMEIVNVSCVSGAIPNNSTQGSSKEKQELLPCLQQDNNRPGILTSDIKTELESKELSATVAESMGLYMDSVRDADYSYEQQNQQGSMSPAKIYQNVEQLVKFYKGNGHRPSTLSCVNTPLRSFMSDSGSSVNGGVMRAVVKSPIMCHEKSPSVCSPLNMTSSVCSPAGINSVSSTTASFGSFPVHSPITQGTPLTCSPNVENRGSRSHSPAHASNVGSPLSSPLSSMKSSISSPPSHCSVKSPVSSPNNVTLRSSVSSPANINNSRCSVSSPSNTNNRSTLSSPAASTVGSICSPVNNAFSYTASGTSAGSSTLRDVVPSPDTQEKGAQEVPFPKTEEVESAISNGVTGQLNIVQYIKPEPDGAFSSSCLGGNSKINSDSSFSVPIKQESTKHSCSGTSFKGNPTVNPFPFMDGSYFSFMDDKDYYSLSGILGPPVPGFDGNCEGSGFPVGIKQEPDDGSYYPEASIPSSAIVGVNSGGQSFHYRIGAQGTISLSRSARDQSFQHLSSFPPVNTLVESWKSHGDLSSRRSDGYPVLEYIPENVSSSTLRSVSTGSSRPSKICLVCGDEASGCHYGVVTCGSCKVFFKRAVEGQHNYLCAGRNDCIIDKIRRKNCPACRLQKCLQAGMNLGARKSKKLGKLKGIHEEQPQQQQPPPPPPPPQSPEEGTTYIAPAKEPSVNTALVPQLSTISRALTPSPVMVLENIEPEIVYAGYDSSKPDTAENLLSTLNRLAGKQMIQVVKWAKVLPGFKNLPLEDQITLIQYSWMCLSSFALSWRSYKHTNSQFLYFAPDLVFNEEKMHQSAMYELCQGMHQISLQFVRLQLTFEEYTIMKVLLLLSTIPKDGLKSQAAFEEMRTNYIKELRKMVTKCPNNSGQSWQRFYQLTKLLDSMHDLVSDLLEFCFYTFRESHALKVEFPAMLVEIISDQLPKVESGNAKPLYFHRK",0.81,25.6,0.8,37.1,0.6,0.59,0.58,48.9,0.6,0.7,0.50,0.74,12.7,0.8,0.81,6.8,1.2,1.21
